T1: Mouse PD-1 extracellular domain, hFc tag (mouse, UniProt Q02242 25-169)
T1 construct: extracellular domain; also called mPro1.ECD.hFc; not shown: human Fc tag at C-terminus
T1 sequence (looked up): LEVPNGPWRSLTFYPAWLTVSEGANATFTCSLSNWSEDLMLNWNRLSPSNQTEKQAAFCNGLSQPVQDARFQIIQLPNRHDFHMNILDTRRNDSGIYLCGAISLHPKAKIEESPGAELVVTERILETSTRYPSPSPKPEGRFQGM


Tests used:
Test in all cases: SPR Biacore 8K; PD-1-hFc captured on anti-human Fc chip, VHH injected; 1:1 fit
[1] = molecular target: T2, Human PD-1 extracellular domain, hFc tag (human, UniProt Q15116 25-170)
T2 construct: extracellular domain; also called hPro1.ECD.hFc; not shown: human Fc tag at C-terminus
T2 sequence (Q15116 25-170): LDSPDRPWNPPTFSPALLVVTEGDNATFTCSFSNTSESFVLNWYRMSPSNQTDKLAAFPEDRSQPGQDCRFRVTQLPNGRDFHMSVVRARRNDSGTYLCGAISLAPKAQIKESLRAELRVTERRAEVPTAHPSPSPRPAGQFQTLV
Protocol: (§1) To screen WBP3056 VHH antibodies from affinity maturation, koff to hPro1.ECD.hFc, mPro1.ECD.hFc and cynoPro1.ECD.hFc (AcrobioSystems) was detected by SPR assay using Biacore 8K. hPro1.ECD.hFc, mPro1.ECD.hFc or cynoPro1.ECD.hFc (AcrobioSystems) was captured on an anti-human IgG Fc antibody immobilized CM5 sensor chip. Each VHH antibody was injected over the sensor chip at a flow rate of 30 uL/min for an association phase of 120 s, followed by 150 s dissociation. The association and dissociation curve was fit to a 1:1 model using Langmuir analysis.

[2] = molecular target: T3, Cynomolgus PD-1 extracellular domain, hFc tag (cynomolgus, UniProt B0LAJ3 25-170)
T3 construct: Bought; also called cynoPro1.ECD.hFc; cyno PD-1 ECD protein
T3 sequence (B0LAJ3 entry or part of it limits assumed): as the sequence (Q15116 25-170) above, with D2E, P10A, V19L, T35A, Q75R, T144A counted along it
Protocol: as §1

[3] = molecular target: T1, Mouse PD-1 extracellular domain, hFc tag
Protocol: as §1

| Binder | Kd [1] [µM] | koff [1] [s⁻¹] | kon [1] [M⁻¹ s⁻¹] | Kd [2] [µM] | koff [2] [s⁻¹] | kon [2] [M⁻¹ s⁻¹] | Kd [3] [µM] | koff [3] [s⁻¹] | kon [3] [M⁻¹ s⁻¹] |
| --- | --- | --- | --- | --- | --- | --- | --- | --- | --- |
| AP17R1-2H2-Z1 (VHH, also called the humanized AP17R1-2H2; not shown: his- and c-Myc-tag from vector pETbac) VHH: QVQLVESGGGVVQPGGSLRLSCAASDSIDSLVNMGWYRQAPGKQRELVALIANYITHYADFVKGRFTISRDNSKNTLYLQMNSLRAEDTAVYYCYARNIIVDYWGQGTLVTVSS | 0.0127 | 0.00392 | 307000 | 0.0364 | 0.00863 | 237000 | 0.0662 | 0.0136 | 205000 |
| AP17R1-2H2-Z1-R1-6E1 (VHH, not shown: his- and c-Myc-tag from vector pETbac) VHH: QVQLVESGGGVVQPGGSLRLSCAASDSIDSMVNMGWYRQAPGKQRELVALIANYITHYADFVKGRFTISRDNSKNTLYLQMNSLRAEDTAVYYCYARNIIVDYWGQGTLVTVSS | 0.00748 | 0.00328 | 439000 | 0.0221 | 0.00754 | 341000 | 0.0508 | 0.0146 | 287000 |
| AP17R1-2H2-Z1-R1-14B3 (VHH, not shown: his- and c-Myc-tag from vector pETbac) VHH: QVQLVESGGGVVQPGGSLRLSCAASDSIDSLVNMGWYRQAPGKQRELVALIARYITHYADFVKGRFTISRDNSKNTLYLQMNSLRAEDTAVYYCYARNIIVDYWGQGTLVTVSS | 0.00509 | 0.00249 | 489000 | 0.0132 | 0.00484 | 366000 | 0.0173 | 0.00596 | 344000 |
| AP17R1-2H2-Z1-R1-14F3 (VHH, not shown: his- and c-Myc-tag from vector pETbac) VHH: QVQLVESGGGVVQPGGSLRLSCAASDSIDSLVNMGWYRQAPGKQRELVALIAWYITHYADFVKGRFTISRDNSKNTLYLQMNSLRAEDTAVYYCYARNIIVDYWGQGTLVTVSS | 0.00235 | 0.00109 | 465000 | 0.00718 | 0.00247 | 344000 | 0.0271 | 0.00732 | 270000 |
| AP17R1-2H2-Z1-R1-14F1 (VHH, not shown: his- and c-Myc-tag from vector pETbac) VHH: QVQLVESGGGVVQPGGSLRLSCAASDSIDSLVNMGWYRQAPGKQRELVALIAYYITHYADFVKGRFTISRDNSKNTLYLQMNSLRAEDTAVYYCYARNIIVDYWGQGTLVTVSS | 0.00328 | 0.00135 | 411000 | 0.00898 | 0.00277 | 309000 | 0.0078 | 0.00218 | 280000 |
| AP17R1-2H2-Z1-R1-14A1 (VHH, not shown: his- and c-Myc-tag from vector pETbac) VHH: QVQLVESGGGVVQPGGSLRLSCAASDSIDSLVNMGWYRQAPGKQRELVALIATYITHYADFVKGRFTISRDNSKNTLYLQMNSLRAEDTAVYYCYARNIIVDYWGQGTLVTVSS | 0.00206 | 0.00112 | 543000 | 0.00504 | 0.00213 | 424000 | 0.0123 | 0.0047 | 381000 |
| AP17R1-2H2-Z1-R1-4B2 (VHH, not shown: his- and c-Myc-tag from vector pETbac) VHH: QVQLVESGGGVVQPGGSLRLSCAASDSISSLVNMGWYRQAPGKQRELVALIANYITHYADFVKGRFTISRDNSKNTLYLQMNSLRAEDTAVYYCYARNIIVDYWGQGTLVTVSS | 0.00919 | 0.00413 | 450000 | 0.0255 | 0.00879 | 345000 | 0.0346 | 0.0101 | 292000 |
| AP17R1-2H2-Z1-R1-4D8 (VHH, not shown: his- and c-Myc-tag from vector pETbac) VHH: QVQLVESGGGVVQPGGSLRLSCAASDSIQSLVNMGWYRQAPGKQRELVALIANYITHYADFVKGRFTISRDNSKNTLYLQMNSLRAEDTAVYYCYARNIIVDYWGQGTLVTVSS | 0.00949 | 0.00396 | 417000 | 0.026 | 0.00833 | 320000 | 0.0337 | 0.00955 | 284000 |

Other lines, results leading:

| Kd [1] [µM] | koff [1] [s⁻¹] | kon [1] [M⁻¹ s⁻¹] | Kd [2] [µM] | koff [2] [s⁻¹] | kon [2] [M⁻¹ s⁻¹] | Kd [3] [µM] | koff [3] [s⁻¹] | kon [3] [M⁻¹ s⁻¹] | Binder |
| --- | --- | --- | --- | --- | --- | --- | --- | --- | --- |
| 0.00701 | 0.00298 | 425000 | 0.02 | 0.00646 | 323000 | 0.0391 | 0.0108 | 277000 | AP17R1-2H2-Z1-R1-29B6 (VHH, not shown: his- and c-Myc-tag from vector pETbac) VHH: QVQLVESGGGVVQPGGSLRLSCAASDSIDSLVNMGWYRQAPGKQRELVALIANYITHYADFVKGRFTISRDNSKNTLYLQMNSLRAEDTAVYYCYARNIYVDYWGQGTLVTVSS |
| 0.00854 | 0.00347 | 406000 | 0.0257 | 0.00817 | 318000 | 0.0558 | 0.0148 | 264000 | AP17R1-2H2-Z1-R1-29B2 (VHH, not shown: his- and c-Myc-tag from vector pETbac) VHH: QVQLVESGGGVVQPGGSLRLSCAASDSIDSLVNMGWYRQAPGKQRELVALIANYITHYADFVKGRFTISRDNSKNTLYLQMNSLRAEDTAVYYCYARNIRVDYWGQGTLVTVSS |
| 0.00856 | 0.00331 | 387000 | 0.0246 | 0.00745 | 302000 | 0.0337 | 0.00894 | 265000 | AP17R1-2H2-Z1-R1-27A2 (VHH, not shown: his- and c-Myc-tag from vector pETbac) VHH: QVQLVESGGGVVQPGGSLRLSCAASDSIDSLVNMGWYRQAPGKQRELVALIANYITHYADFVKGRFTISRDNSKNTLYLQMNSLRAEDTAVYYCYARSIIVDYWGQGTLVTVSS |
| 0.00679 | 0.00282 | 416000 | 0.0192 | 0.00624 | 325000 | 0.0425 | 0.0118 | 277000 | AP17R1-2H2-Z1-R1-30D3 (VHH, not shown: his- and c-Myc-tag from vector pETbac) VHH: QVQLVESGGGVVQPGGSLRLSCAASDSIDSLVNMGWYRQAPGKQRELVALIANYITHYADFVKGRFTISRDNSKNTLYLQMNSLRAEDTAVYYCYARNIIEDYWGQGTLVTVSS |
